Positions count from the first letter of the chain named. Numbers in names are those of the source.

The target of assay [1] is pyrene-labeled rabbit skeletal muscle F-actin (rabbit) (UniProt P68135). In words: stopped-flow fluorescence.
Assay [2] has the same target. The experiment in a line: other fluorescence titration.
Assay [3] has as its target RLC-depleted porcine cardiac myosin (pig (endogenous in porcine ventricular muscle)) (UniProt P79293). In words: reconstitution of RLC-depleted myosin, SDS-PAGE densitometry.
Assay [4] shares this target. In words: reconstitution of RLC-depleted skinned muscle strips, SDS-PAGE densitometry.

Turning to “porcine cardiac myosin reconstituted with human cardiac S15D-R58Q RLC (from UniProt P79293 1-1935; P10916 1-166) (complex)”, in assay [1], the kobs of actin-myosin dissociation at 10 μM MgATP came out at 7.29 s⁻¹, the kobs of actin-myosin dissociation at 25 μM MgATP is 14.7 s⁻¹, the kobs of actin-myosin dissociation at 40 μM MgATP stood at 25.3 s⁻¹ and the kobs of actin-myosin dissociation at 80 μM MgATP amounted to 41.5 s⁻¹. Besides, in assay [1], the kobs of actin-myosin dissociation at 150 μM MgATP is 74 s⁻¹ and the kobs of actin-myosin dissociation at 250 μM MgATP was found to be 111 s⁻¹. In assay [2], this molecule returned a Kd of 3.53 nM.

Take “porcine cardiac myosin reconstituted with human cardiac WT RLC (from UniProt P79293 1-1935; P10916 1-166) (complex)”: in assay [1], the kobs of actin-myosin dissociation at 10 μM MgATP turned out to be 8.25 s⁻¹, the kobs of actin-myosin dissociation at 25 μM MgATP worked out at 15.7 s⁻¹, the kobs of actin-myosin dissociation at 40 μM MgATP amounted to 27.3 s⁻¹ and the kobs of actin-myosin dissociation at 80 μM MgATP was determined as 48.9 s⁻¹. In assay [1], this molecule registered a kobs of actin-myosin dissociation at 150 μM MgATP of 82.2 s⁻¹ and a kobs of actin-myosin dissociation at 250 μM MgATP of 107 s⁻¹. In assay [2], the Kd was 2.13 nM.

On to “porcine cardiac myosin reconstituted with human cardiac R58Q RLC (from UniProt P79293 1-1935; P10916 1-166) (complex)”, for which, in assay [1], the kobs of actin-myosin dissociation at 10 μM MgATP was found to be 7.26 s⁻¹, the kobs of actin-myosin dissociation at 25 μM MgATP is 15.1 s⁻¹, the kobs of actin-myosin dissociation at 40 μM MgATP was determined as 23.6 s⁻¹ and the kobs of actin-myosin dissociation at 80 μM MgATP is 45.6 s⁻¹. In assay [1], this molecule returned a kobs of actin-myosin dissociation at 150 μM MgATP of 69.2 s⁻¹ and a kobs of actin-myosin dissociation at 250 μM MgATP of 107 s⁻¹. This molecule returned a Kd in assay [2] of 13.3 nM.

B1: human ventricular (cardiac) myosin regulatory light chain, wild type (natural protein)
chain: MAPKKAKKRAGGANSNVFSMFEQTQIQEFKEAFTIMDQNRDGFIDKNDLRDTFAALGRVNVKNEEIDEMIKEAPGPINFTVFLTMFGEKLKGADPEETILNAFKVFDPEGKGVLKADYVREMLTTQAERFSKEEVDQMFAAFPPDVTGNLDYKNLVHIITHGEEKD
Consider B1, for which the % RLC Present is 87.2% in assay [3] and 61.3% in assay [4].

B2: human ventricular myosin regulatory light chain R58Q mutant (natural protein)
chain: B1 chain with R58Q
B2: the % RLC Present was determined as 75.7% in assay [3] and 54% in assay [4].

B3: human ventricular myosin regulatory light chain S15D-R58Q phosphomimic double mutant (natural protein)
chain: B1 chain with S15D, R58Q
For B3, the % RLC Present in assay [3] came to 86.9%; in assay [4] it was 64.5%.

The values above are taken from publication PMC6326841.
